Measurements published in paper PMC7521599.
Blank lines part the entries; values can stand above or below the molecule they belong to.

How the values were obtained:
[1] = target: Skp1ΔΔ (doubly truncated Dictyostelium Skp1A: Δinternal loop/ΔC-terminus) (Dictyostelium discoideum) (UniProt P52285); experiment: AUC
[2] = target: Skp1 (OCP2) (Cavia porcellus) (UniProt P63209); conditions: cited from earlier work
[3] = target: T1, Dictyostelium discoideum Skp1A (Dictyostelium discoideum), P52285; experiment: AUC; conditions: remark: other sources report otherwise
T1 chain: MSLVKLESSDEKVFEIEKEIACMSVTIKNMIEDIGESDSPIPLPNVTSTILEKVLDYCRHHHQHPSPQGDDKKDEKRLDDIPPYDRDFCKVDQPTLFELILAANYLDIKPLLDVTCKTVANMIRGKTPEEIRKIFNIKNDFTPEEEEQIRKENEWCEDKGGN

- stoichiometry N [1]: 2
Molecule: Skp1ΔΔ (doubly truncated Dictyostelium Skp1A: Δinternal loop/ΔC-terminus) (from UniProt P52285 1-125) (domain or fragment)

Molecule: Skp1 (OCP2) (from UniProt P63209)
- Kd [2]: 1100 nM

- Kd [3]: 2500 nM
- stoichiometry N [3]: 2
B1: Dictyostelium discoideum Skp1A, P52285 1-162 (natural protein)
chain: MSLVKLESSDEKVFEIEKEIACMSVTIKNMIEDIGESDSPIPLPNVTSTILEKVLDYCRHHHQHPSPQGDDKKDEKRLDDIPPYDRDFCKVDQPTLFELILAANYLDIKPLLDVTCKTVANMIRGKTPEEIRKIFNIKNDFTPEEEEQIRKENEWCEDKGGN
